Common to all, as to experiment: SPR
On the technique in general: Surface plasmon resonance follows binding to a sensor surface in real time, without labels.

Assay [1] addresses RNF43-A7.
The target of assay [2] is RNF130-A1.
Assay [3] addresses ZNRF3-A10.

B1: human RNF43 extracellular domain (domain or fragment)
chain: GFGRTGLVLAAAVESERSAEQKAIIRVIPLKMDPTGKLNLTLEGVFAGVAEITPAEGKLMQSHPLYLCNASDDDNLEPGFISIVKLESPRRAPRPCLSLASKARMAGERGASAVLFDITEDRAAAEQLQQPLGLTWPVVLIWGNDAEKLMEFVYKNQKAHVRIELKEPPAWPDY
modifications: biotinylated (BirA ligase)
For orientation: Kd means the free concentration of one partner at which half of the binding sites on the other are occupied at equilibrium, for simple one-to-one binding. Read a high Kd as a looser complex. B1 came in with a Kd in assay [1] of 3.8 nM.

B2: human RNF130 (GOLIATH) extracellular domain (domain or fragment)
chain: DNASQEYYTALINVTVQEPGRGAPLTFRIDRGRYGLDSPKAEVRGQVLAPLPLHGVADHLGCDPQTRFFVPPNIKQWIALLQRGNCTFKEKISRAAFHNAVAVVIYNNKSKEEPVTMTHPGTGDIIAVMITELRGKDILSYLEKNISVQMTIAVGTRMPPKNFSRGS
modifications: biotinylated (BirA ligase)
In assay [2], B2 returned a Kd of 8.2 nM.

B3: human ZNRF3 extracellular domain (domain or fragment)
chain: KETAFVEVVLFESSPSGDYTTYTTGLTGRFSRAGATLSAEGEIVQMHPLGLCNNNDEEDLYEYGWVGVVKLEQPELDPKPCLTVLGKAKRAVQRGATAVIFDVSENPEAIDQLNQGSEDPLKRPVVYVKGADAIKLMNIVNKQKVARARIQHRPPRQPTEYFDM
modifications: biotinylated (BirA ligase)
Take B3: the Kd in assay [3] is 0.7 nM.

(Values after article PMC10127277 (2023).)
